Laboratory results as given in paper PMC2811193, “Complementary Roles in Cancer Prevention: Protease Inhibitor Makes the Cancer Preventive Peptide Lunasin Bioavailable” (PLoS ONE, 2010).

B1: KTI: soy Kunitz Trypsin Inhibitor, a protease inhibitor contained in soybean (protein, UniProt P01070 25-205, looked up)
Trypsin inhibitor A: DFVLDNEGNPLENGGTYYILSDITAFGGIRAAPTGNERCPLTVVQSRNELDKGIGTIISSPYRIRFIAEGHPLSLKFDSFAVIMLCVGIPTEWSVVEDLPEGPAVKIGENKDAMDGWFRLERVSDDEFNNYKLVFCPQQAEDDKCGDIGISIDHDDGTRRLVVSKNKPLVVQFQKLDKESL
B2: BBI: polypeptide of 71 amino acids with the ability to inhibit the serine proteases trypsin and chymotrypsin (protein, UniProt P01055 40-110, looked up)
Bowman-Birk type proteinase …: DDESSKPCCDQCACTKSNPPQCRCSDMRLNSCHSACKSCICALSYPAQCFCVDITDFCYEPCKPSEDDKEN

How the values were obtained:
[1] = test system: Pancreatin from porcine pancreas; assay: In vitro digestion of lunasin with pancreatin, with or without protease inhibitors; type: in vitro ADME; settings: inhibitor 18,000 ng, lunasin 600 ng, pancreatin 600 ng, 1 h at 37°C; also after heat denaturation of the inhibitor
Method: Figure 2 Soy-derived BBI and KTI protect synthetic lunasin from in vitro digestion. The upper, lighter bands are Coomassie Blue protein stains and the lower, darker bands are Western blots. (M) Markers, (1) Lunasin (600 ng) + pancreatin (600 ng) incubated for 0 h at 37°C, (2) Lunasin (600 ng) + pancreatin (600 ng) incubated for 1 h at 37°C, (3) Lunasin (600 ng) + BBI (18,000 ng, unboiled) + pancreatin (600 ng) incubated for 1 h at 37°C, (4). Lunasin (600 ng) + KTI (18,000 ng, unboiled) + pancreatin (600 ng) incubated for 1 h at 37°C, (5) Lunasin (600 ng) + BBI (18,000 ng, boiled) + pancreatin (600 ng) incubated for 1 h at 37°C, (6) Lunasin (600 ng)+KTI (18,000 ng, boiled) + pancreatin (600 ng) incubated for 1 h at 37°C, (7) BBI (unboiled), (8) KTI (unboiled).
In vitro digestion of lunasin was carried out following the method published in the United States Pharmacopeia. Synthetic lunasin (American Peptide Company, Inc. Sunnyvale, CA, USA) (5 µg) was incubated with the protease inhibitors BBI or KTI (Sigma, St. Louis, MO, USA) for 30 min at 25°C. Pancreatin from porcine pancreas (Sigma) was added (enzyme∶protein ratio of 1∶10) and solution was incubated at 37°C for 1 h. Tris-tricine sample buffer was added at the end of the reaction and immediately stopped by placing the tubes in a boiling water bath for 5 min. The digests were analyzed by SDS-PAGE and Western-Blot following the protocol previously described.

[2] = test system: DMBA-induced NIH3T3 cells; assay: Foci formation assay in DMBA-induced NIH3T3 cells; type: cell-based; settings: 100 nM peptide; 1.5 µg/ml DMBA; 6 weeks; n = 6
Method: The foci formation assay was performed according to Reznikoff et al. NIH3T3 cells were obtained from American Type Culture Collection (ATCC) and cultured in RPMI 1640 medium supplemented with 10% fetal bovine serum (FBS) (Invitrogen, Carlsbad, CA, USA). Cells were plated at a density of 500 cells/well in 12-well plates, incubated overnight at 37°C and treated with lunasin or BBI for 4 hrs. Then, cells were treated with 1.5 µg/ml DMBA for 20 hrs. After washing with PBS, fresh medium was added. Peptides were added and medium was changed every week for 6 weeks. At the end of experiment, cells were washed with 0.9% NaCl, fixed with methanol, stained with Giemsa, and scored for transformed foci. The negative control was a set of cells receiving no DMBA, while the positive control consisted of cells induced by DMBA but without treatment.

[3] = test system: MDA-MB-231 tumor xenografts; assay: Breast cancer prevention in MDA-MB-231 xenograft mouse model; type: in vivo, athymic NCr-nu/nu mice
Method: Human MDA-MB-231 breast cancer cells were obtained from ATCC and grown in Leibovitz's L-15 Medium supplemented with 10% FBS, 100 unit/ml penicillin, and 100 µg/ml streptomycin (Invitrogen), in a humidified atmosphere at 37°C.
Mice protocol was approved by ACUC (University of California, Berkeley, CA, USA). Thirty-two six weeks-old athymic NCr-nu/nu mice (National Cancer Institute, Frederick, MD, USA) were acclimatized for 1 week and randomly divided into four groups (n = 8): control group (receiving PBS), BBI-group (receiving BBI at 20 mg/kg body weight), and two lunasin-groups (receiving synthetic lunasin [Chengdu KaiJie Bio-Pharmaceutical Co., Chengdu, P.R. China] at 20 mg/kg body weight and 4 mg/kg body weight). After two months of i.p. treatment three times a week, mice were injected subcutaneously in the right flank with 1×10^7 MDA-MB-231 cells suspended in 0.1 ml of Matrigel Basement Membrane Matrix (Becton Dickinson, Bedford, MA, USA). Tumor growth was monitored by palpation, and the onset when tumors were detectable was noted. Tumor size was measured with calipers, and tumor volume was calculated assuming the shape as ellipsoid. Tumor incidence in percentage was calculated as the number of tumor-bearing mice divided by the total number of mice in each group, whereas tumor generation was calculated as the total number of tumors divided by total number of mice in each group. The volume of the tumor was determined using the following formula: tumor volume = length × width^2 ×0.523 [41].
At the end of the experiment, animals were sacrificed, and tumors were dissected and weighed. Individual tumors were split for fixation in the Shando Glyo-Fixx™ (Thermo Scientific, Pittsburgh, PA, USA) for histological examination. The paraffin-embedded sections were stained with hematoxylin and eosin (H&E).

[4] = test system: Ki-67 expression in MDA-MB-231 tumors; assay: Immunohistochemical staining of xenograft tumor sections for Ki-67 labeling index; type: in vivo, athymic NCr-nu/nu mice; settings: 20 mg/kg body weight i.p.; tumors collected 7 weeks after cells injection
Method: Sections were evaluated for tumor cell cytology, growth pattern, necrosis and apoptosis. The 5 µm sections were deparaffinized and rehydrated and antigens were retrieved using citrate buffer (pH 6.0) before endogenous peroxidase activity was blocked. Proliferation was shown using an antibody against Ki-67 (MIB-1; DakoCytomation, Glostrup, Denmark, dilution 1∶75). Antigen expression was expressed using streptavidin conjugated to horseradish peroxidase and visualized by diaminobenzidine chromogen reagent (DakoCytomation). All immunohistochemistry slides were examined by light microscopy (Axiophot 381, Zeiss, Germany). Ki-67 labeling index was calculated as percentage of positive cells over total number of cells counted in microscope at 400× magnification.

MDA-MB-231 tumors = assay: In situ TUNEL assay for apoptosis in xenograft tumor sections; type: in vivo, athymic NCr-nu/nu mice; settings: lunasin 20 and 4 mg/kg (P = 0.0088, 0.0141 vs control), BBI 20 mg/kg i.p.
Method: In situ terminal deoxynucleotidyl transferase-mediated dUTP nick end labeling (TUNEL) assay was performed using ApopTag Detection Kit (Millipore, USA & Canada) and ran based on the manufacturer's protocol. Briefly, deparaffinized and rehydrated sections were pretreated with 20 µg/mL proteinase K for 15 min and incubated with terminal transferase and digoxigenin dUTP at 37°C for 1 h. After washing, sections were incubated with antidigoxigenin rhodamine (Millipore) and DAPI (Invitrogen), and slides were visualized by fluorescent microscopy (Axiophot 381). The apoptotic cells were calculated as percentage of positive cells over total number of cells counted in microscope at 400× magnification.

| Molecule | protection of lunasin from in vitro digestion with pancreatin [1] | reduction of foci formation [2] | tumor incidence (mice showing tumors) ([3]; 20 mg/kg body weight i.p. three times a week, seven weeks post-cells injection, n = 8) | tumor incidence lower compared with the control ([3]; 20 mg/kg body weight i.p., seven weeks post-cells injection) | tumor generation ([3]; 20 mg/kg body weight i.p., versus vehicle-treated group) | body weight ([3]; i.p. three times a week, BBI 20 mg/kg, lunasin 20 and 4 mg/kg body weight, compared among the four groups, n = 8) | reduction of Ki-67 expression compared with the control group [4] | TUNEL-positive apoptotic cells in tumors (MDA-MB-231 tumors) |
| --- | --- | --- | --- | --- | --- | --- | --- | --- |
| B1 | protect lunasin from digestion | – | – | – | – | – | – | – |
| B2 | protect lunasin from digestion | 60% | 88% | no effect | ineffective | No significant differences | no significant difference | Few TUNEL-positive cells |
